This note sets out measurements from the nanobody polyreactivity screen of Harvey et al. (2022).

A short description of the series: yeast display, Sf9 membrane polyspecificity reagent, FACS + sequencing; frameworks hold sequencing errors. In outline:
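Using colony PCR, genes from sorted yeast display clones were amplified, then sequenced on MiSeq at 2 × 250 and filtered by CDR length. The clones had been stained with 10% biotinylated, detergent-solubilized Sf9 membrane reagent for 1 hour at 4 °C and sorted by FACS into low and high (top ~1%) gates on anti-HA and streptavidin fluorescence. Polyreactivity labels come from the gate of origin.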
Consider “QVQLVESGGVLVQAGGSLRVSCAASGGIFPRYTMGWSRQAPGKERELVASITRSGASTYYADSVKGRFTISRDKAKNTVYLPINSQKPEDTWFYYVISDVYVYSVTSHYTSSRLDYWGQGTQVTVSS”, for which the “polyreactivity (PSR sort gate)” value is “high polyreactivity”.
Turning to “QVQLVESGGVLVQAGRSLRLSCAASGSPFRIYAMGWYRQAPGKERELVAAISSGGRTNYADSVKGRFTISRDNAKNTVYLQMNSLKPEDTAVYYCATVGYSSSTSGNRYGRAYYYWGQGTQVTVSS”, the “polyreactivity (PSR sort gate)” value is recorded as “high polyreactivity”.
Under “QVQLVESGGVLVQGGGSLRLSCAASGSIFPFYALGWYRQAPGKERELVATNSWSGGRTYYADSVKGRFTKSRDNAKTNVYLQINILIPEDTAVYYCAAGSYHYPNAYYYWGQGTQLTVSS” stands “high polyreactivity”.
As to “QVQLVESGIGLVQAGGSLRLSCAASGRTLGGNAMGWYRQAPGKERELVAAINWSGGITYYADSVKGRFTISRDNAKNTVYLQMNSLKPEDTAVYYCARYKYNRQTRVEYGYWGQGTLVTVSS”, the “polyreactivity (PSR sort gate)” value is recorded as “high polyreactivity”.
With “QVQLVESGRGLDQAGGSLRLICYASGRTFLYNAMGWFRQSPGKERELVAAIRWSGGTTYYADSVKGRFTISRDNSKNNVYLQMNSLKPEDTAIYYCAARWGQYYGGVRYGYWGQGTQVTVSS”, the “polyreactivity (PSR sort gate)” value is given as “high polyreactivity”.
Regarding “QVQLVESGRGLFHAGGSLRLSCAASGNTFGKYDMGWSIQAPGKERELVAAISKSSGSTYYADSVKGRFTISRDNAKNTVYFQMNSLKPEDTAVYYCAAEAYRYAWYDYWGQGTQVTVSS”, the “polyreactivity (PSR sort gate)” value is recorded as “high polyreactivity”.
Regarding “QVQLVESGRGLFQAGGSLRISCAASGSTYQFYAMGWYRQAPGIERELVASIRVRSGTTYYADSVKGRFTISRDNAKNTVYLQMNSLKPEDTAVYYCASGRPYYGRKYDYWGQGTQVTVSS”, the “polyreactivity (PSR sort gate)” value is recorded as “high polyreactivity”.
In the case of “QVQLVESGRGLFQSGGSLRLSCAASGRTFVPYAMGWYRQAPGKESELVAAISYSGDSTYYADSVKGRFTISRDNAKNTVYLQMKSLIPEDTAVYYCAKRGPVRNTAYDYWGQGTQVTVSS”, the “polyreactivity (PSR sort gate)” value is given as “low polyreactivity”.
As to “QVQLVESGRGLVLAGGSLRLSCAASGRIFRYYAMGWYRQATGKERELVAGISWRGSSTYYADSVKGRFTISRDNAKNTVYLQMNSLKPEDTAVYYCNRDQSYIPVTGGRFYYWGQGTQVTVSS”, the “polyreactivity (PSR sort gate)” value was “high polyreactivity”.
Under “QVQLVESGRGLVQAGCSLRLSCPASGIIFTTYDMGWYRQAPGKERELVAAISSSTTNTYYADSVKWRFTISRDNAMNTVYLQMNSLKPEETAVYYCAAPYKSNAGFDYWGQGTQVTVSS” stands “low polyreactivity”; under “QVQLVESGRGLVQAGGRLRLSCAASGRTFSRNAMGRYRQAPGKERELVAAISFRGVSTYYADSEKGRFTISRDNAKNTVYLQLNSLKPEDTAVYYCARRYTSKGGYDYWGQGTQVTVSS”, “high polyreactivity”.
On to “QVQLVESGRGLVQAGGSLRISCAASGFTFSRYAMGWYRQAPGKERELVAAISLRGGRTYYADSVKGRFTISRDNAKNTVYLQMNSLKPEDTAVYYCNRDYRGPYYYWGQGTQVTVSS”, for which the “polyreactivity (PSR sort gate)” value is listed as “high polyreactivity”.
Take “QVQLVESGRGLVQAGGSLRISCAASGSTFYPNAMGWYRQAPGKEREFVAAISTSAGRTYYADSVKGRFTISRDNAKNTVYLQMNSLKPEDTAVYYCNARYWVYYVYEFDSWGQGTQVTVSS”: the “polyreactivity (PSR sort gate)” value is given as “low polyreactivity”.
Under “QVQLVESGRGLVQAGGSLRLISAASGSIFVHNTMGWYSQAPGKDRELVAAITYSGGSTNYADSVKGRFTISRDNAKNTVYLQMNSLKPEDTAVYYCATRAISQFHSLGYYYWGQGTEVTVSS” stands “low polyreactivity”.
For the sequence “QVQLVESGRGLVQAGGSLRLRCAASGRNIRAYAMGCYRQAPGTERDLVAAITWSGGGTYYADSVKGRFTISRDNAKNTVYLQMTSLKPEDTAVYYCAAVTTLRPSWKRYYYWGQGTQVTVSS”, the “polyreactivity (PSR sort gate)” value is reported as “high polyreactivity”.
As to “QVQLVESGRGLVQAGGSLRLSCAASGFTFLLNAMGWYRQAPGKERELVAAITYSGGSTYYADSVKGRFTISRDNAKNTVYLQMNSLKPEDTAVYYCAKTSVTISEYEYWGQGTQVTVSS”, the “polyreactivity (PSR sort gate)” value is “low polyreactivity”.
